Source: publication doi:10.1101/2023.12.15.571532 (bioRxiv, 2023)

B1: RelF antitoxin, recombinant His-tagged (natural protein)
chain: MRILPISTIKGKLNEFVDAVSSTQDQITITKNGAPAAVLVGADEWESLQETLYWLAQPGIRESIAEADADIASGRTYGEDEIRAEFGVPRRPH
B2: RelB antitoxin, recombinant His-tagged (natural protein)
chain: MAVVPLGEVRNRLSEYVAEVELTHERITITRHGHPAAVLISADDLASIEETLEVLRTPGASEAIREGLADVAAGRFVSNDEIRNRYTAR
B3: RelJ antitoxin, recombinant His-tagged (natural protein)
chain: MSISASEARQRLFPLIEQVNTDHQPVRITSRAGDAVLMSADDYDAWQETVYLLRSPENARRLMEAVARDKAGHSAFTKSVDELREMAGGEE

Target: the molecule itself
Assay: native gel or EMSA

Protein	stoichiometry N	binding result
B1	4	–
B2	–	binds
B3	4	–
